From patent US20230212294A1 (MINGHUI PHARMACEUTICAL SHANGHAI, published 2023)
Residue numbers refer to the chain shown, from its start.

B1: NL24-A17 (antibody, V domains shown)
VH: QVQLVQSGAEVKKPGSSVKVSCKASGGTFSSYAISWVRQAPGQGLEWMGGIIPILGIANYAQKFQGRVTITADESTSTAYMELSSLRSEDTAVYYCARGDSGYDSNYWGQGTLVTVSA
VL: EIVLTQSPATLSLSPGERATLSCRASQSVSTYLAWYQQKPGQAPRLLIYDASNRATGIPARFSGSGSGTDFTLTISSLEPEDYAVYYCQQRSNWPPLFTFGPGTKVDIK
notes: Screened from the human source library; full-length antibody; also called NL24A17HC; NL24A17LC
B2: NL24-A10 (antibody, V domains shown)
VH: EVQLVQSGAEVKKPGSSVKVSCKASGGTFSSYAISWVRQAPGQGLEWMGGIIPIFGTANYAQKFQGRVTITADESTSTAYMELSSLRSEDTAVYYCARGERGSYLIDYWGQGTLVTVSA
VL: B1 VL with T31S, Y83F, L97M, F98Y, P102Q, V106L, D107E
notes: Screened from the human source library; full-length antibody; also called NL24A10HC; NL24A10LC
B3: IL-P7-C05-H3L1 (antibody, V domains shown)
VH: EVQLVESGGGLVQPGGSLRLSCAASGFTFSSYGMSWVRQAPGKGLELVAAINSNGGSTYYADSVKGRFTISRDNAKNTLYLQMSSLRAEDTAVYYCTRNEEFRRGLAYWGQGTLVTVSS
VL: DIQMTQSPSSLSASVGDRVTITCRASENIYSNLAWYQQKPGKAPKLLVYAATNLADGVPSRFSGSGSGTDYTLTISSLQPEDFATYYCQHFWGTPPWTFGQGTKLEIK
notes: Humanized from IL-P7-C05; full-length antibody; also called ILP7C05huVH3 + ILP7C05huVL1
B4: IL-P7-C05-H3L3 (antibody, V domains shown)
VH: B3 VH
VL: B3 VL with V48I, T52S, A55Q, D56S
notes: Humanized from IL-P7-C05; full-length antibody; also called ILP7C05huVH3 + ILP7C05huVL3
B5: IL-P7-C05-H2L1 (antibody, V domains shown)
VH: B3 VH with A50T, S57T
VL: B3 VL
notes: Humanized from IL-P7-C05; full-length antibody; also called ILP7C05huVH2 + ILP7C05huVL1
B6: IL-P7-C05-H2L2 (antibody, V domains shown)
VH: B3 VH with A50T, S57T
VL: B3 VL with A55Q, D56S
notes: Humanized from IL-P7-C05; full-length antibody; also called ILP7C05huVH2 + ILP7C05huVL2
B7: IL-P7-C05-H4L1 (antibody, V domains shown)
VH: B3 VH with G33A
VL: B3 VL
notes: Humanized from IL-P7-C05; full-length antibody; also called ILP7C05huVH4 + ILP7C05huVL1
B8: IL-P7-C05-H1L1 (antibody, V domains shown)
VH: B3 VH with A50T, S57T, A61P, N77H
VL: B3 VL
notes: Humanized from IL-P7-C05; full-length antibody; also called ILP7C05huVH1 + ILP7C05huVL1
B9: IL-P6-C11 (antibody, V domains shown)
VH: EVQLQQSGPELVKPGASVRISCKTSGYTFTDYVIHWVKQNHGGSLEWIGGINRDSGGTTYNQKFQDKVTLTVDKSSNTAYMELRSLTSEDSAVYYCTKWKFPWYFDVWGAGTTVTVSS
VL: DIELTQSPAIMSASPGEKVTMTCSASSSISYMHWYQQKPGTSPKRWIYDTSKLASGVPARFSGSGSGTSYSLTISRVEAEDAATYYCQQWSSNPLTFGSGTKLEIK
notes: Unhumanized murine variable regions; full-length antibody
B10: IL-P6-B07 (antibody, V domains shown)
VH: B9 VH with D31E
VL: B9 VL with E3V, I29V, P39S, R76S, V77M, S99A, I105L
notes: as for B9

Legend:
monkey B7-H3-his = target: T1, monkey B7-H3-his (monkey); test: ELISA, antigen coated at 2 µg/mL
T1 chain: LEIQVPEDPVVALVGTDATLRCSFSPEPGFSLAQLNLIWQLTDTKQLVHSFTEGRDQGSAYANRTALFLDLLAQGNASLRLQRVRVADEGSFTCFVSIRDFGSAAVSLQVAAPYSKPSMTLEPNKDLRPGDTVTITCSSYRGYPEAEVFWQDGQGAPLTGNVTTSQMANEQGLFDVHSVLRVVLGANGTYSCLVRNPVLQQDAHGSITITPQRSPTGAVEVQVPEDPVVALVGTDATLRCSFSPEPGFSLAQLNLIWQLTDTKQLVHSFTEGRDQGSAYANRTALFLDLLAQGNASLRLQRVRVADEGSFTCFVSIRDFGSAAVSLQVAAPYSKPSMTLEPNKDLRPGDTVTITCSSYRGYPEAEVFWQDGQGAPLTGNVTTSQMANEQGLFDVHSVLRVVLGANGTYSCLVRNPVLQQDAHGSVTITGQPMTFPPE
Procedure: (§1) Human B7-H3-his, mouse B7-H3-his and monkey B7-H3-his were diluted to 2 μg/mL with PBS, and added to the ELISA plate at 30 μL per well. The ELISA plate was then incubated in a refrigerator at 4° C. for 16-20 hours. The next day, the ELISA plate was washed once with a lotion (PBS containing 0.05% Tween 20) and then blocked with 5% skim milk powder for 1 hour. After blocking, the ELISA plate was washed once, then added with gradient-diluted anti-B7-H3 antibodies, and incubated at room temperature for 1 h. After incubated, the ELISA plate was washed three times, then added with goat anti-human HRP-labeled secondary antibody, and incubated at room temperature for 1 h. After incubated, the ELISA plate was washed three times, then developed for 5-15 minutes by adding TMB, and finally terminated with 2M sulfuric acid. The data were recorded on the microplate reader.

mouse B7-H3-his = target: T2, mouse B7-H3-his (mouse, UniProt Q8VE98 29-244, limits assumed); test: ELISA, antigen coated at 2 µg/mL
T2 construct: His-tagged recombinant protein coated on the ELISA plate; not shown: his tag
T2 sequence (looked up): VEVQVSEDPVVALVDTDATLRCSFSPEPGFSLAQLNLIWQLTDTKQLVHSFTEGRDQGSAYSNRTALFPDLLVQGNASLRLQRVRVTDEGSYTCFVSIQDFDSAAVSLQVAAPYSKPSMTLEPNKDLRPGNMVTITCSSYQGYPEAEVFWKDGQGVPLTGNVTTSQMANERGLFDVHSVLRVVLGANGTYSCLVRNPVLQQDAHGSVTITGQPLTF
Procedure: as §1

[1] = target: T3, B7-H3 endogenously expressed on human tumor cell lines (human, UniProt Q5ZPR3 29-534); test: flow cytometry on NCI-H322 cells
T3 construct: whole, on cells; The cell line is named in the assay or readout field of each row; also called NCI-H322 cells endogenously expressing B7-H3; B7-H3-positive human tumor cell lines NCI-H1975, BxPC-3, Calu-6
T3 sequence (looked up): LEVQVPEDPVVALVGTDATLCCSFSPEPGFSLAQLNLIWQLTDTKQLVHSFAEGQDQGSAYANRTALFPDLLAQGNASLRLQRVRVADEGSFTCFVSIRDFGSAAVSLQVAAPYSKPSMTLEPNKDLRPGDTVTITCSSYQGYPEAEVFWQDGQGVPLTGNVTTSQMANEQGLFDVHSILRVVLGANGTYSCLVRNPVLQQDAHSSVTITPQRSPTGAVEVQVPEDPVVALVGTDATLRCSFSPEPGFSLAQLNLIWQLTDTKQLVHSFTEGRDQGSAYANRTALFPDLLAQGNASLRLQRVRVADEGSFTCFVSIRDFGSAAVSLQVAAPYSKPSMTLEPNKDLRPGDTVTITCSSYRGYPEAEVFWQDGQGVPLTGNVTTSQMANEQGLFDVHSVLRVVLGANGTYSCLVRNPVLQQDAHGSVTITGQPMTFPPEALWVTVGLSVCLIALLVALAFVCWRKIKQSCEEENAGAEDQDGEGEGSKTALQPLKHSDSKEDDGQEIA
Procedure: (§2) CHOK cells overexpressing B7-H3 or NCI-H322 cells endogenously expressing B7-H3 were added to a round-bottom 96-well plate at 100,000 cells per well, centrifuged to remove the supernatant, and then added with a gradient-diluted anti-B7-H3 antibody and incubated at 4 degrees for 1 h. After incubation, the cells were washed twice with FACS buffer (PBS containing 2% FBS), then added with fluorescent-labeled goat anti-human secondary antibody (Abcam, ab98596) and incubated for 0.5 h. After incubation, the cells were washed twice with FACS buffer, then resuspended with FACS buffer and detected with flow cytometry (Beckman, cytoFlex).

[2] = target: T4, B7-H3 on CHOK cells overexpressing B7-H3; test: flow cytometry on CHOK cells overexpressing B7-H3
T4 construct: whole, on cells; also called CHO cells that artificially express B7-H3; B7-H3-expressing CHO cells
T4 sequence (Q5ZPR3 whole entry, species assumed, looked up): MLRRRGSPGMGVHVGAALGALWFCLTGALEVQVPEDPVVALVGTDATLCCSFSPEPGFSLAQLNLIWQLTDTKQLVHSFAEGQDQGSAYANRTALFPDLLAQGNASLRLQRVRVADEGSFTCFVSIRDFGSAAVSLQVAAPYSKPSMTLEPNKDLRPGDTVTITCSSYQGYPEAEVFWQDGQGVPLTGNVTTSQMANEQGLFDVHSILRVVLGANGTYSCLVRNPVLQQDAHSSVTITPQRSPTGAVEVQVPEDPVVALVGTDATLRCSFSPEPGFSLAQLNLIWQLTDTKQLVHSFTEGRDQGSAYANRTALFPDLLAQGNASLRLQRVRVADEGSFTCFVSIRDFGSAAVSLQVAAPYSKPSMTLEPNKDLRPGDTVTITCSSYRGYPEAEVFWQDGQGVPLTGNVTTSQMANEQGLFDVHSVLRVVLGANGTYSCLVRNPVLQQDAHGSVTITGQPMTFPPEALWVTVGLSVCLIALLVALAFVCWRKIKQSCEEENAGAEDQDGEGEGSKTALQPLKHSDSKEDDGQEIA
Procedure: as §2

[3] = target: T4, B7-H3 on CHOK cells overexpressing B7-H3; test: cell-based or functional assay

| Binder | EC50 (monkey B7-H3-his) | EC50 (mouse B7-H3-his) | EC50 [1] | EC50 [2] | IC50 of CHO endocytosis experiment (toxin-labeled secondary antibody, cell viability) [3] |
| --- | --- | --- | --- | --- | --- |
| B1 | 0.0527 µg/mL | 0.0643 µg/mL | 0.0267 µg/mL | 0.665 µg/mL |  |
| B2 | 0.124 µg/mL | 0.219 µg/mL | 0.0304 µg/mL | 0.448 µg/mL |  |
| B3 |  |  | 0.0109 µg/mL | 0.454 µg/mL |  |
| B4 |  |  | 0.0106 µg/mL | 0.431 µg/mL |  |
| B5 |  |  | 0.0144 µg/mL | 0.426 µg/mL |  |
| B6 |  |  | 0.0145 µg/mL | 0.455 µg/mL |  |
| B7 |  |  | 0.0138 µg/mL | 0.468 µg/mL |  |
| B8 |  |  | 0.0107 µg/mL | 0.426 µg/mL |  |
| B9 | 0.0152 µg/mL | 0.523 µg/mL | 0.21 µg/mL | 0.311 µg/mL | 0.0035 µg/mL |
| B10 | 0.183 µg/mL | 1.29 µg/mL | 0.249 µg/mL |  |  |
